T1: 自产IL-4Rα重组蛋白 (in-house human recombinant IL-4Rα, residues 26-232 of NP_000409.1, expressed in 293F cells) (human, UniProt P24394 26-232)
T1 construct: range 26-232; Cloned into pcDNA3.4 and expressed in 293F cells; The construct itself is defined on NP_000409.1; also called RJK; 人源重组IL-4Rα蛋白
T1 sequence (looked up): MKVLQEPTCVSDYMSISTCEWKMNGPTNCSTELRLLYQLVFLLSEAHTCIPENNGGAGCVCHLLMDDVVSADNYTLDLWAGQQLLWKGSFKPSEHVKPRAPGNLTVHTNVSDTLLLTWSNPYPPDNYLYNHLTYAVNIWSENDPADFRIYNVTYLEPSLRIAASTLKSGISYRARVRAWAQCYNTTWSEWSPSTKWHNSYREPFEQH


Tests used:
[1] = target: T1, 自产IL-4Rα重组蛋白 (in-house human …); assay: BLI (Octet RED96), IL-4Rα loaded on the sensor, antibody in solution from 100 nM in 2-fold dilutions
[2] = target: T1, 自产IL-4Rα重组蛋白 (in-house human …); assay: binding ELISA of purified VHH on IL-4Rα recombinant protein

Kd [1]	koff [1]	kon [1]	EC50 [2]	Binder
0.239 nM	0.000133 s⁻¹	556000 M⁻¹ s⁻¹	2.13 nM	单域抗体 4E9 (VHH) VHH: QVQLVESGGGSVQAGGSLRLSCAASGDFYCMAWFRQAPGKEREGVATIRSGGRSTYYADSVKGRFTISKDNAKDTLYLQMNSLKPEDTAMYYCAVGVDGNCRNYWGQGTQVTVSS
–	–	–	2.72 nM	单域抗体 1A9 (VHH) VHH 1: QVPLQQSGPELVKPGASVKISCKASGYAFSSSWMNWVKQRPGKGLEWIGRIYPGDGDTKYNGKFKGKATLTADKSSSTAYMQLSSLTSEDSAVYFCARDDYDEASWGQGTLVTVSA VHH 2: DIVMTQSQKFMSTSVGDRVSITCKASQNVRSAVAWYQQKPGQSPKSLIYLASNRHTGVPDRFTGSGSGTDFTLTISNVQSEDLADYFCLQHWNYPFTFGSGTKLEIK

Source: patent publication CN111690066A (NANJING RONGJIEKANG BIOTECHNOLOGY CO LTD, dated 2020)
